Legend:
[1] = target: FKBP×3-VP16 fusion protein (human; Herpes Simplex Virus) (UniProt P62942); test: cell-based or functional assay
[2] = target: FKBP×3-p65 fusion protein (human) (UniProt P62942); test: cell-based or functional assay

For “ZFHD1-FKBP×3 fusion protein (from UniProt P08046 333-390; P14859 378-439; P62942 2-108; P62942 2-108; P62942 2-108)”, which FK1012 concentration at peak SEAP activation [1] is on record?
The FK1012 concentration at peak SEAP activation was 100 nM.

And the FK1012 concentration at peak SEAP activation [2]?
The FK1012 concentration at peak SEAP activation was 100 nM.

— US20070150973A1
